Experimental data published in US20070274981A1 (Eli Lilly, published 2007).

What was measured:
Recombinant FGFR-1(IIIb) [1] = target: T1, Recombinant FGFR-1(IIIb) (UniProt P11362-19 22-376); assay: BiaCore analyses
T1 construct: Bought (R&D Systems); also called FGFR-1b; FGFR-(IIIb); not shown: Fc-tag of the recombinant receptor (detected with anti-human Fc)
T1 sequence (looked up): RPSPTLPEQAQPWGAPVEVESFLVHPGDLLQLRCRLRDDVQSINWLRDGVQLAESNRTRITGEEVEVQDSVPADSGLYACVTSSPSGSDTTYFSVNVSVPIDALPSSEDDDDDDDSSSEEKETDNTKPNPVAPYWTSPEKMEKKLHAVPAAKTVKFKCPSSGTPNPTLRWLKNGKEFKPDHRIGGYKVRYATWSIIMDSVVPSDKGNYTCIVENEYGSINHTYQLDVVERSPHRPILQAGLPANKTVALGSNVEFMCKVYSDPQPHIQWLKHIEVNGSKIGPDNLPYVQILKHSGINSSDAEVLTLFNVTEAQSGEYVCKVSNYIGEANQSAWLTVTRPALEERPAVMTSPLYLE

Recombinant FGFR-1(IIIb) [2] = target: T1, Recombinant FGFR-1(IIIb); assay: ELISA blocking assay: FGFR-1(IIIb) binding to immobilised FGF-1
Description: (§1) Recombinant FGFs (R&D systems, Minneapolis, Minn.) were coated on Immulon® 2B microtiter plates (ThermoLab Systems, Franklin, Mass.) at concentrations of 0.5-2 μg/ml for 2 hrs. The plates were then washed with 0.2% Tween20/PBS, and blocked with 5% milk/PBS for 2 hrs before use. Phage or antibody was serially diluted with 5 μg/ml heparin (Sigma, St Louis, Mo.), 5% milk, PBS. Recombinant FGFR-1 (R&D Systems) was then added to a final concentration of 1 μg/ml. […] Plates were then washed 3 times with 0.2% Tween20/PBS. The bound receptors were detected using an anti-human Fc monoclonal antibody coupled with HRP (Pierce Biotechnology Inc., Rockford, Ill.) solution prepared according to supplier's instructions. Data were presented as % inhibition of ligand-receptor binding of the controls.
(§2) The blocking activities to fully active, native FGFR-1 receptor were determined in the cell-based blocking assay.

Recombinant FGFR-1(IIIb) [3] = target: T1, Recombinant FGFR-1(IIIb); assay: BiaCore 3000 biosensor, binding kinetics
Recombinant FGFR-4 [4] = target: T2, Recombinant FGFR-4 (UniProt P22455 22-369); assay: BiaCore 3000 biosensor, binding kinetics
T2 construct: Bought (R&D Systems); also called FGFR-4(IIIc)
T2 sequence (looked up): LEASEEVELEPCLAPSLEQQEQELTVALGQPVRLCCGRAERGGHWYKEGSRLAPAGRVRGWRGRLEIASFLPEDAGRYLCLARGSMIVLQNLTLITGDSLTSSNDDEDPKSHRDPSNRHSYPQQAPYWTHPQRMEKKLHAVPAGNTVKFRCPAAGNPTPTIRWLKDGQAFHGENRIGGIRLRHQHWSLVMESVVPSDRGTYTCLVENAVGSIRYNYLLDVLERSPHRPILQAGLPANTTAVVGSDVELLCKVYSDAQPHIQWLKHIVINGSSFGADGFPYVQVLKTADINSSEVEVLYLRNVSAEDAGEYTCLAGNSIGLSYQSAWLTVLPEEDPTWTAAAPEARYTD

Recombinant FGFR-1(IIIb) [5] = target: T1, Recombinant FGFR-1(IIIb); assay: ELISA blocking assay: FGFR-1(IIIb) binding to immobilised FGF-2
Description: as §1, §2

Recombinant FGFR-1(IIIb) [6] = target: T1, Recombinant FGFR-1(IIIb); assay: kinetic analysis (BiaCore)
Recombinant FGFR-4 [7] = target: T2, Recombinant FGFR-4; assay: kinetic analysis (BiaCore)

B1: FR1-4H (antibody, V domains shown)
VH: QVQLVEFGPGLVKPSETLSLTCTVSGGSISSYYWSWIRQPPGKGLEWIGYIYYSGSTNYNPSLKSRVAISVDTSKNQFSLKLSSVTAADTAVYYCAREYYYDSSGYYFYAFDIWGQGTTVTVSS
VL: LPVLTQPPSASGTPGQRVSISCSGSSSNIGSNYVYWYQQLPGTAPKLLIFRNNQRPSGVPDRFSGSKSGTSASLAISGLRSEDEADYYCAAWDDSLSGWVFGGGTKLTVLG
notes: Isolated by the same procedure as FR1-H7 and FR1-A1
Kd (Recombinant FGFR-1(IIIb) [1]): 1.1 nM

B2: FR1-H7 (antibody, V domains shown)
VH: EVQLVQSGAEVKKPGASVKVSCKVSGYTFTDYYMHWVQQAPGKGLEWMGLVDPEDGETIYAEKFQGRVTITADTSTDTAYMELSSLRSEDTAVYYCARDDYMDVWGKGTLVTVSS
VL: ETTLTQSPDTLSLSPGEGATLSCRASQSVSGSALAWYQQKPGQAPRLLIYDASSRATGVPDRFSGSGSGADFSLTISRLEPEDFAVYSCQQYGSSPLTFGPGTKVDVKR
notes: also called FR1-H7 antibody
IC50 (Recombinant FGFR-1(IIIb) [2]): ~5 nM | Kd (Recombinant FGFR-1(IIIb) [3]): 0.06 nM | Kd (Recombinant FGFR-4 [4]): 200 nM | IC50 (Recombinant FGFR-1(IIIb) [5]): 2 to 5 nM | Kd (Recombinant FGFR-1(IIIb) [6]): ~0.05 nM

B3: FR1-A1 (antibody, V domains shown)
VH: QVQLVQSGAEVKKPGSSVKVSCKASGQTFTGYYMHWVRQAPGQGLEWMGRIIPILGIANYAQKFQGRVTITADKSTSTAYMELSSLRSEDTAVYYCARGGDLGGMDVWGQG
VL: EIVLTQSPLSLPVTPGEPASISCRSSQSLRHSNGYNYLDWYLQKPGQSPQLLIYLASNRASGVPDRFSGSGSGTDFTLKISRVEAEDVGVYYCMQALQIPPTFGPGTKVDIKR
notes: also called FR1-A1 antibody
Kd (Recombinant FGFR-4 [7]): 90 nM
